Each block holds one binder with its values, some of them ahead of it.
How the values were obtained:
[1] = biological target: T1, human CD38 on target cells (HEK293/hCD20/hCD38, MOLP8, NALM-6, NALM-6/hPD-L1) (human, UniProt P28907 1-300); assay: cell-based or functional assay
[2] = biological target: T1, human CD38 on target cells …; assay: cell-based or functional assay; remark: listed apart in the source
[3] = biological target: T1, human CD38 on target cells …; assay: cell-based or functional assay; remark: listed apart in the source
[4] = biological target: T1, human CD38 on target cells …; assay: cell-based or functional assay; remark: listed apart in the source
[5] = biological target: T2, Dimeric human CD28 with a c-terminal mouse Fc tag (hCD28.mFc) (human); assay: SPR (Biacore 3000, 25 C); hCD28.mFc captured on anti-mouse Fc, bsAb injected; 1:1 fit
T2 construct: also called bsAb2012; Human CD28 extracellular domain (N19-P152).mFc
Procedure: (§1) For CD28 kinetic determinations, SPR experiments were performed using a Biacore 3000 instrument at 25° C. Dimeric human CD28 with a c-terminal mouse Fc tag (hCD28.mFc, bsAb2012) were captured for 37 seconds at a flow rate of 8 uL/min on a CM5 anti-mouseFc-(GE)-coupled surface. Approximately 150 RU of hCD28.mFc were captured. […] Dissociation was measured for 10 minutes. The KD and t_{1/2} were calculated by fitting the double-referenced sensorgrams to a 1:1 binding model.

[6] = biological target: T3, Monomeric human CD38 with a c-terminal myc-myc-hexahistidine tag (hCD38.mmH) (human, UniProt P28907 43-300); assay: SPR (Biacore, 25 C); group summary of Table 8
T3 construct: also called bsAb3305; not shown: C-terminal myc-myc-hexahistidine tag

[7] = biological target: T2, Dimeric human CD28 with a c-terminal …; assay: SPR (Biacore, 25 C); group summary of Table 9
Procedure: as §1

[8] = biological target: T3, Monomeric human CD38 with a c-terminal …; assay: SPR (Biacore 3000, 25 C); bsAb captured on anti-human Fc, hCD38.mmH injected; 1:1 fit
Procedure: For CD38 kinetic determinations, SPR experiments were performed using a Biacore 3000 instrument at 25° C. Antibodies were captured for 37 seconds at a flow rate of 8 uL/min on a CM5 anti-humanFc-(bsAb2567)-coupled surface. Approximately 230 RU of each antibody were captured. […] Dissociation was measured for 10 minutes. The KD and t½ were calculated by fitting the double-referenced sensorgrams to a 1:1 binding model.

IFNγ release EC50; T cells + HEK293/hCD20/hCD38, + TAAxCD3 (bsAb1979) [1]: 0.123 nM | IFNγ release EC50; T cells + MOLP8, + TAAxCD3 (bsAb5458) [1]: 0.00424 nM | IL2 release EC50; T cells + NALM-6, + Cemiplimab [2]: 0.0981 nM | IL2 release EC50; T cells + NALM-6/hPD-L1, + Cemiplimab [2]: 0.143 nM | IL2 release EC50; T cells + NALM-6/hPD-L1, + IgG4^P [2]: 0.169 nM | T-cell proliferation EC50; T cells + HEK293/hCD20/hCD38, + IgG4^P isotype control [3]: 45.6 nM | T-cell proliferation EC50; T cells + HEK293/hCD20/hCD38, + TAAxCD3 (bsAb1979) [3]: 0.000894 nM | IL2 release EC50; T cells + HEK293/hCD20/hCD38, + IgG4^P isotype control [4]: 41.4 nM | IL2 release EC50; T cells + HEK293/hCD20/hCD38, + TAAxCD3 (bsAb1979) [4]: 0.00502 nM | IL2 release EC50; T cells + MOLP8, + IgG4^P isotype control [4]: 0.00971 nM
B1: bsAb7945 (bispecific antibody, human IgG4 S228P, kappa)
heavy 1: QVQLVQSGAEVKKPGSSVKVSCKASGGPFRSSSFSWVRQAPGQGLEWMGGIIPILGKTNYAQKFQGRITIVTDESTTTVYMELSSLRSEDTAVFYCVRGSSLFDYWGQGTLVTVSSASTKGPSVFPLAPCSRSTSESTAALGCLVKDYFPEPVTVSWNSGALTSGVHTFPAVLQSSGLYSLSSVVTVPSSSLGTKTYTCNVDHKPSNTKVDKRVESKYGPPCPPCPAPPVAGPSVFLFPPKPKDTLMISRTPEVTCVVVDVSQEDPEVQFNWYVDGVEVHNAKTKPREEQFNSTYRVVSVLTVLHQDWLNGKEYKCKVSNKGLPSSIEKTISKAKGQPREPQVYTLPPSQEEMTKNQVSLTCLVKGFYPSDIAVEWESNGQPENNYKTTPPVLDSDGSFFLYSRLTVDKSRWQEGNVFSCSVMHEALHNHYTQKSLSLSLGK
heavy 2: QVQLQESGPGLVKPSETLSLTCTVSGGSISSYYWSWIRQPPGKGLEWIGYIYYSGITHYNPSLKSRVTISVDTSKIQFSLKLSSVTAADTAVYYCARWGVRRDYYYYGMDVWGQGTTVTVSSASTKGPSVFPLAPCSRSTSESTAALGCLVKDYFPEPVTVSWNSGALTSGVHTFPAVLQSSGLYSLSSVVTVPSSSLGTKTYTCNVDHKPSNTKVDKRVESKYGPPCPPCPAPPVAGPSVFLFPPKPKDTLMISRTPEVTCVVVDVSQEDPEVQFNWYVDGVEVHNAKTKPREEQFNSTYRVVSVLTVLHQDWLNGKEYKCKVSNKGLPSSIEKTISKAKGQPREPQVYTLPPSQEEMTKNQVSLTCLVKGFYPSDIAVEWESNGQPENNYKTTPPVLDSDGSFFLYSRLTVDKSRWQEGNVFSCSVMHEALHNRFTQKSLSLSPGK
light: not shown

IFNγ release EC50; T cells + HEK293/hCD20/hCD38, + TAAxCD3 (bsAb1979) [1]: 0.294 nM | IFNγ release EC50; T cells + MOLP8, + TAAxCD3 (bsAb5458) [1]: 0.748 nM | IL2 release EC50; T cells + NALM-6, + Cemiplimab [2]: 2.44 nM | IL2 release EC50; T cells + NALM-6, + IgG4^P [2]: 1.68 nM | IL2 release EC50; T cells + NALM-6/hPD-L1, + Cemiplimab [2]: 4.39 nM | IL2 release EC50; T cells + NALM-6/hPD-L1, + IgG4^P [2]: 2.64 nM | Kd [5]: 25.9 nM | koff [5]: 0.00149 s⁻¹ | kon [5]: 57400 M⁻¹ s⁻¹ | t½ [5]: 7.8 min | T-cell proliferation EC50; T cells + HEK293/hCD20/hCD38, + TAAxCD3 (bsAb1979) [3]: 0.143 nM | T-cell proliferation EC50; T cells + MOLP8, + IgG4^P isotype control [3]: 0.467 nM | Kd [6]: < 10 nM | Kd [7]: < 26 nM | IL2 release EC50; T cells + HEK293/hCD20/hCD38, + TAAxCD3 (bsAb1979) [4]: 0.199 nM | IL2 release EC50; T cells + MOLP8, + IgG4^P isotype control [4]: 0.653 nM | IL2 release EC50; T cells + MOLP8, + TAAxCD3 (bsAb5458) [4]: 1.02 nM | Kd [8]: 7.08 nM | koff [8]: 0.000748 s⁻¹ | kon [8]: 106000 M⁻¹ s⁻¹ | t½ [8]: 15.4 min
B2: bsAb6031 (bispecific antibody, human IgG4 S228P, kappa)
heavy 1: EVQLVESGGGLVQPGRSLRLSCAASGFTFDDYAMHWVRQAPGKGLEWVSGISWKSDNIGYADSVKGRFTISRDNAKNSLYLQMNSLRAEDTALYYCAKALGGWKFDYYYGMDVWGQGTTVTVSSASTKGPSVFPLAPCSRSTSESTAALGCLVKDYFPEPVTVSWNSGALTSGVHTFPAVLQSSGLYSLSSVVTVPSSSLGTKTYTCNVDHKPSNTKVDKRVESKYGPPCPPCPAPPVAGPSVFLFPPKPKDTLMISRTPEVTCVVVDVSQEDPEVQFNWYVDGVEVHNAKTKPREEQFNSTYRVVSVLTVLHQDWLNGKEYKCKVSNKGLPSSIEKTISKAKGQPREPQVYTLPPSQEEMTKNQVSLTCLVKGFYPSDIAVEWESNGQPENNYKTTPPVLDSDGSFFLYSRLTVDKSRWQEGNVFSCSVMHEALHNHYTQKSLSLSLGK
heavy 2: EVQLVESGGGLVQPGGSLRLSCAASGFTFSRNNMHWVRQAPGKGLEYVSGISSNGGRTYYADSVKGRFTISRDNSKNTLYLQMGGLRAADMAVYFCTRDDELLSFDYWGQGTLVTVSSASTKGPSVFPLAPCSRSTSESTAALGCLVKDYFPEPVTVSWNSGALTSGVHTFPAVLQSSGLYSLSSVVTVPSSSLGTKTYTCNVDHKPSNTKVDKRVESKYGPPCPPCPAPPVAGPSVFLFPPKPKDTLMISRTPEVTCVVVDVSQEDPEVQFNWYVDGVEVHNAKTKPREEQFNSTYRVVSVLTVLHQDWLNGKEYKCKVSNKGLPSSIEKTISKAKGQPREPQVYTLPPSQEEMTKNQVSLTCLVKGFYPSDIAVEWESNGQPENNYKTTPPVLDSDGSFFLYSRLTVDKSRWQEGNVFSCSVMHEALHNRFTQKSLSLSPGK
light: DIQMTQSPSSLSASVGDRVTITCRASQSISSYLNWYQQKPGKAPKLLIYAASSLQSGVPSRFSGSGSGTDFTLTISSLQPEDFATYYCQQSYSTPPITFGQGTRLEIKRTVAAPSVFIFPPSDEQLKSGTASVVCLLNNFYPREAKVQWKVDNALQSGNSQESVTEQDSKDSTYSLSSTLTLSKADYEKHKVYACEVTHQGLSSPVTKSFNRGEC
notes: also called anti-CD38×CD28 bispecific antibody

Source: patent US20220089766A1 (published 2022)
